In patent publication US8889621B2, “Inhibiting binding of FGF23 to the binary FGFR-Klotho complex for the treatment of hypophosphatemia” (New York University, priority 2009, dated 2014):
Entries after “also recorded” stand apart in the source; their conditions may differ. Peptide text beside a SMILES is read from it.

T1: βKlotho-FGF21 (Mus musculus, UniProt Q99N32)
T1 construct: the ectodomain of murine βKlotho (F53 to L995) was expressed in HEK293 cells; FLAG (C); made in house; host or cells: HEK293 (βKlotho ectodomain); E. coli (FGF21)
T1 sequence (Q99N32 53-995): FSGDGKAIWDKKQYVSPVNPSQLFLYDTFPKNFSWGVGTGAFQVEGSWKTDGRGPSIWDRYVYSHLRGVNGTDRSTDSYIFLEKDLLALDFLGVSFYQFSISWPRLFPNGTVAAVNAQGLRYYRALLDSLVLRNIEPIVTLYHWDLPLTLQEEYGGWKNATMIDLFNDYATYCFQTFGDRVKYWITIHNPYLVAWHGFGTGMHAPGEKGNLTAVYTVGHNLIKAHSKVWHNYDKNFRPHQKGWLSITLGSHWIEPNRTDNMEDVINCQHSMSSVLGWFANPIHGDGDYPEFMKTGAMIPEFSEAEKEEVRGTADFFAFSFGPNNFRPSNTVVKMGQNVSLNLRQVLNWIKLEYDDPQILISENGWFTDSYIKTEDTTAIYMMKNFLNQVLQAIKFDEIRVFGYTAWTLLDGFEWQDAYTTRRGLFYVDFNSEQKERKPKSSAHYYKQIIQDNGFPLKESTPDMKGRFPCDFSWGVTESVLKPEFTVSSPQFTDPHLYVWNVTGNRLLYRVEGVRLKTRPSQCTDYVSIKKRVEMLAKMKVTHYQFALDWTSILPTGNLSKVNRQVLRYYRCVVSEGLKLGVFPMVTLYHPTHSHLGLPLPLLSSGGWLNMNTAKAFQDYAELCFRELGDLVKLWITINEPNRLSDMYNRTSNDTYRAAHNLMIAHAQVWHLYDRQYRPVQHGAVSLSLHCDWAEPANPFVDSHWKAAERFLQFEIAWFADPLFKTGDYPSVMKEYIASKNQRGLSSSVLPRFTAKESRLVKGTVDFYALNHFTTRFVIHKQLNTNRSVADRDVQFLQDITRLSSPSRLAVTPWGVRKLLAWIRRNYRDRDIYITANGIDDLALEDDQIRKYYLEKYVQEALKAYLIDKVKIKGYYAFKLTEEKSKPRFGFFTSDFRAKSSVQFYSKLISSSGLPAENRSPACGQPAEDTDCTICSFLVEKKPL

T2: FGFR1c-βKlotho-FGF19 (UniProt P11362+Q99N32)
T2 construct: the ectodomain of murine βKlotho (F53 to L995) was expressed in HEK293 cells; FLAG (C); made in house; host or cells: E. coli (FGFR1c, FGF19); HEK293 (βKlotho ectodomain)
T2 sequence (P11362 142-365): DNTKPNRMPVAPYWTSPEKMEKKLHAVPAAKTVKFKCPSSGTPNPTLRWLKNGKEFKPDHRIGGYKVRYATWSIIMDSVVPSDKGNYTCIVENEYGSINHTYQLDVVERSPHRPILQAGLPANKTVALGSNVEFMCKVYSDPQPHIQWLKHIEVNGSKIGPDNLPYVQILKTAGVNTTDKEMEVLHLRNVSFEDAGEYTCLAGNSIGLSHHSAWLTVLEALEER
T2 sequence (Q99N32 53-995): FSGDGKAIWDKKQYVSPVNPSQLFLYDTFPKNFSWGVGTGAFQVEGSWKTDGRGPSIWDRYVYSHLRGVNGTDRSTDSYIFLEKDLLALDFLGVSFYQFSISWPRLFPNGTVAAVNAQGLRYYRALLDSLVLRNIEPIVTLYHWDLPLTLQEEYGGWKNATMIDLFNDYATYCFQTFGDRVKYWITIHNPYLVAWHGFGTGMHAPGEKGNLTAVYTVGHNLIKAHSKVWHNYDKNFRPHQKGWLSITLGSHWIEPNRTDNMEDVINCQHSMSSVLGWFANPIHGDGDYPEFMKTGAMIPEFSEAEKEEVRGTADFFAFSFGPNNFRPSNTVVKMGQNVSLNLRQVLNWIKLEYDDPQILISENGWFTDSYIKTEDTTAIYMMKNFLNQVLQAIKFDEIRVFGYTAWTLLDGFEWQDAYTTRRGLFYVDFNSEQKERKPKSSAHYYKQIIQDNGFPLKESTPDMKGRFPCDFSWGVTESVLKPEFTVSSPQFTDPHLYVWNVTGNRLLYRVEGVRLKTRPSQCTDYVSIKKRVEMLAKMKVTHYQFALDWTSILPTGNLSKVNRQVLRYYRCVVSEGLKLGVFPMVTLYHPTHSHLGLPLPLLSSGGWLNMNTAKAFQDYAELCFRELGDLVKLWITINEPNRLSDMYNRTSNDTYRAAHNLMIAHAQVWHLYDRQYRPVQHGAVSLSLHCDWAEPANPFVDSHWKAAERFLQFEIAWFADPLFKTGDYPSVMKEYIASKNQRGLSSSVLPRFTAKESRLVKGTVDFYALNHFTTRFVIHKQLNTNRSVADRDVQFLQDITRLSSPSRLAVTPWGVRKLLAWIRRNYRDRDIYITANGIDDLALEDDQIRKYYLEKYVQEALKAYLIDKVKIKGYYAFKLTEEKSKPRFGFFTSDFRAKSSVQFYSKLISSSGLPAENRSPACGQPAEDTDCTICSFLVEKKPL


Legend:
[1] = tested on: Hyp mice; experiment: Urine and serum phosphate in Hyp mice after IP injection; type: in vivo, mouse; conditions: vs vehicle; for serum phosphate: IP, FGF23^180-251 1 mg or FGF23^180-205 860 μg
From the text: The anti-phosphaturic activity of FGF23 C-terminal peptides was examined in normal Sprague-Dawley rats and in Hyp mice, a mouse model of human X-linked hypophosphatemia (XLH) (Beck et al., “Pex/PEX Tissue Distribution and Evidence for a Deletion in the 3′ Region of the Pex Gene in X-linked Hypophosphatemic Mice,” J Clin Invest 99(6):1200-1209 (1997), Eicher et al., “Hypophosphatemia: Mouse Model for Human Familial Hypophosphatemic (Vitamin D-resistant) Rickets,” Proc Natl Acad Sci USA 73(12):4667-4671 […], Strom et al., “Pex Gene Deletions in Gy and Hyp Mice Provide Mouse Models for X-linked Hypophosphatemia,” Hum Mol Genet. 6(2):165-171 (1997), which are hereby incorporated by reference in their entirety). The animals were fed a complete, fixed formula diet containing 0.94% phosphate. Anesthetized rats (220-250 g body weight) were administered IV either FGF23^28-251 (0.1 μg kg body weight^−1) or FGF23^180-251 (0.1 μg kg body weight^−1) or vehicle. Before and 3 h after the injection, blood was drawn from the carotid artery and urine was collected through bladder catheterization. Plasma and urine chemistry of animals were analyzed using Vitros Chemistry Analyzer (Ortho-Clinical Diagnosis). 10- to 15-week old Hyp mice were fasted for 8-12 h before administering IP either FGF23^180-251 (1 mg) or FGF23^180-205 (860 μg) or vehicle. Before and 2 h, 4 h, 8 h, and 24 h after the injection, urine and serum samples were collected. Phosphate concentrations in urine and serum were determined using Phosphorus Liqui-UV Test (Stanbio Laboratory), and urine creatinine levels were measured using DetectX™ Urinary Creatinine Detection Kit (LuminosAssays).

[2] = target: T1, βKlotho-FGF21; experiment: SPR specificity: βKlotho binding to immobilized FGF21^29-209; set-up: species or system murine βKlotho, human FGF21; conditions: molar ratio of 2:1 to βKlotho
[3] = target: T2, FGFR1c-βKlotho-FGF19; experiment: SPR specificity: FGFR1c-βKlotho binding to immobilized FGF19^23-216; set-up: species or system human FGFR1c, murine βKlotho, human FGF19; conditions: 10-fold molar excess over FGFR1c-βKlotho

Molecule | serum phosphate [1] | inhibition of βKlotho binding to immobilized FGF21 [2] | renal phosphate excretion ([1]; IP 1 mg) | inhibition of FGFR1c-βKlotho binding to immobilized FGF19 [3]
CSCC[C@H](NC(=O)[C@H](CCCNC(=N)N)NC(=O)[C@H](C)NC(=O)[C@H](CCCNC(=N)N)NC(=O)[C@@H]1CCCN1C(=O)[C@H](CCCCN)NC(=O)[C@H](CC(C)C)NC(=O)[C@@H](NC(=O)[C@H](CC(N)=O)NC(=O)[C@H](CC(C)C)NC(=O)[C@@H]1CCCN1C(=O)[C@H](CC(=O)O)NC(=O)[C@H](CCCNC(=N)N)NC(=O)[C@H](CCC(=O)O)NC(=O)[C@H](CO)NC(=O)[C@H](CC(=O)O)NC(=O)[C@H](CC(=O)O)NC(=O)[C@H](CCC(=O)O)NC(=O)[C@H](C)NC(=O)[C@@H](N)CO)C(C)C)C(=O)N[C@H](C(=O)N1CCC[C@H]1C(=O)N[C@@H](C)C(=O)N1CCC[C@H]1C(=O)N[C@@H](C)C(=O)N[C@@H](CO)C(=O)O)[C@@H](C)O [FGF23^180-205] (H-SAEDDSERDPLNVLKPRARMTPAPAS-OH; N-terminus and C-terminus assumed) | increase |  |  | 
FGF23^180-251: 72-amino acid C-terminal tail of human FGF23 (S180 to I251), expressed in E. coli (protein, listed as Homo sapiens) SAEDDSERDPLNVLKPRARMTPAPASCSQELPSAEDNSPMASDPLGVVRGGRVNTHAGGTGPEGCRPFAKFI | elevated | failed to inhibit; also recorded: no inhibition | decrease | did not affect; also recorded: no inhibition
